The assay addresses caleosin 2 (CLO2), Cub fusion (A. thaliana, UniProt Q9FLN9 1-243). Description: two-hybrid.

Sequence of caleosin 2 (CLO2), Cub fusion (Q9FLN9 whole entry, the tested form may be a part): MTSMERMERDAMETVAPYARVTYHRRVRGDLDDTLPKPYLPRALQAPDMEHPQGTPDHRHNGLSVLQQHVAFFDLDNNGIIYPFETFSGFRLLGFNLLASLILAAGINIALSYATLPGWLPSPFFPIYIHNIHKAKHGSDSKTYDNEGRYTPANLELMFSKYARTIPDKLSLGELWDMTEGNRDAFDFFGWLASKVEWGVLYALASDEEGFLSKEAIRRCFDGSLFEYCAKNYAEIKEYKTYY

B1: autophagy-related protein 8b (ATG8b), NubG fusion (natural protein, A. thaliana, UniProt Q9XEB5 1-117, looked up)
chain: MEKNSFKLSNPLEMRMAESTRIRAKYPERVPVIVEKAGQSDVPDIDKKKYLVPADLTIGQFVYVVRKRIKLGAEKAIFVFVKNTLPPTAALMSAIYEEHKDEDGFLYMTYSGENTFG
Turning to B1, the “fold weaker β-galactosidase activity (against CLO1, CLO3 and OLE1)” value amounted to 2 fold.

The values are drawn from paper doi:10.1101/2023.04.04.535563 (bioRxiv, 2023).
